Data on 1 substance can be found in patent US8119589B2, “Modulation of CD4+ T cell responses by a tick saliva protein, Salp15 and polypeptides derived therefrom” (University of North Carolina at Charlotte, priority 2004, dated 2012).

This assay deals with T1, sCD4 (Homo sapiens, UniProt P01730).
T1 construct: the extracellular four domains of CD4 (sCD4); purchased Research Diagnostics Inc., Flanders, N.J., U.S.A
The assay is described as follows: Microtiter binding of sCD4-HRP to plate-bound Salp15 and synthetic peptides. To be noted: plate-bound Salp15 pre-treated with 10 mM DTT. The procedure: Purified sCD4 was coated overnight at 4° C. at the indicated concentrations in 0.1M sodium carbonate buffer (pH 9.5) in 96 well plates. Equimolar amounts of lysozyme were used as a non-specific control. The wells were washed, blocked with 10% FCS/PBS for 1 hr at R.T., and incubated with Salp15 (0.4 μM) for 2 hr at 37° C. Salp15 binding was detected by incubation with horseradish peroxidase (HRP)-conjugated anti-His antibody for 1 hr followed by microwell peroxidase substrate (KPL). The reaction was stopped by adding TMB stop solution (KPL). Chemically synthesized overlapping peptides of Salp15 were purchased from GenScript Corporation (Piscataway, N.J., U.S.A). To study the binding of Salp15 and peptides to sCD4, Salp15 (5 μg) and different peptides (0.5 μg) were coated. The wells were washed and blocked prior to incubation with sCD4-HRP (Research Diagnostics Inc., Flanders, N.J., U.S.A.). For competition assays, indicated concentrations of Salp15 or P11 were added to sCD4-HRP and incubated with plate bound P11 (0.1 μg). To estimate the effect of dithiothreitol (DTT) treatment of Salp15 on binding to sCD4, 0.5 μM Salp15 was treated with 10 mM DTT overnight and immobilized onto microtiter plate followed by blocking and incubation with sCD4-HRP.
Dissociation constants were determined by non-linear curve fit. The results are expressed as the mean±S.E. of 3 to 5 individual experiments.

As to “Salp15: secreted salivary protein from Ixodes scapularis, SEQ ID NO: 2; recombinant His-tagged, produced in Drosophila S2 cells”, the “CD4 binding after DTT pre-treatment compared to control Salp15” value is on record as “equivalent binding levels”.
